# Reference: US8410115B2, “Methods of treating inflammatory and autoimmune diseases with alpha-4 inhibitory compounds” (Elan Pharmaceuticals, Inc., priority 2006, dated 2013)
# Key:
# JCV [1] = details: one MS patient with PML after natalizumab plus AVONEX; cited from earlier work
# JCV [2] = details: in vitro; cited from earlier work
# [3] = target: serotonin 5HT2(A) receptor (Homo sapiens, UniProt P28223); experiment: 5HT2(A) receptor antagonism in vitro
# MS patients [4] = details: 2-year Phase 3 MS trials; cited from earlier work
# [5] = Natalizumab in combination with glatiramer acetate over six months; type: in vivo, human; details: 20 mg daily glatiramer acetate
# Method: The safety of natalizumab in combination with glatiramer acetate was evaluated by administering natalizumab over six months to patients who continued to receive 20 mg of daily glatiramer acetate. […] However, this study was of insufficient size or duration to establish the long-term safety or efficacy in this population.
# [6] = system: rheumatoid arthritis patients; experiment: Deaths in rheumatoid arthritis trials of natalizumab; type: in vivo, human; details: natalizumab-treated rheumatoid arthritis patients
# From the text: Three deaths occurred in the rheumatoid arthritis trials, two in natalizumab-treated patients and one in a patient treated with a placebo. The natalizumab-treated patients died of hemoptysis with respiratory failure and end-stage rheumatoid pulmonary disease. The placebo-treated patient died of circulatory and respiratory insufficiency.
# [7] = system: relapsing remitting MS patients; experiment: Phase 3 monotherapy study: natalizumab versus placebo for 120 weeks; type: in vivo, human
# Method: (§1) As described in more detail in Example 1, two Phase 3 studies were conducted to study the effect of two years of treatment with natalizumab. One of the studies used natalizumab alone (the monotherapy study) and the other used natalizumab in combination with AVONEX® (the add-on therapy study). Both these Phase 3 studies were designed with two sets of primary and secondary endpoints. The primary and secondary endpoints were selected to measure the effects of natalizumab on the inflammatory aspects of the disease after a mean of one year of follow-up in each study (900 patient-years of observation in the monotherapy study; 1,200 patient-years in the add-on therapy study).
# (§2) The primary endpoint of these studies was the annualized rate of clinical relapses. Two of the secondary endpoints were two supporting MRI measures of inflammatory disease activity, namely, the mean number of new or newly enlarging T2-hyperintense lesions (measuring lesion accumulation over time) and the mean number of Gd-enhancing lesions (measuring acute disease activity), as ranked in order of importance. The proportion of patients remaining relapse-free provided a third secondary endpoint.
# (§3) Another series of endpoints was assessed at the conclusion of each study following two years of natalizumab treatment. The endpoints for this final analysis were selected to determine natalizumab's effects on measures associated with MS disease progression. The primary endpoint at two years was the time until onset of sustained progression of disability, as measured by changes in EDSS scores. Similar to the one-year analysis, the secondary endpoints were additional MRI and clinical measures that would support the primary analysis. The secondary endpoints at two years, ranked in order of importance, were the rate of MS relapses (to confirm one-year relapse observations), the mean volume of T2-hyperintense lesions (a measure of overall MS disease burden), the mean number of T1-hypointense lesions (a measure of axonal loss), and progression of disability as determined by changes in the MSFC (to confirm and expand upon disability effects as measured by the EDSS).
# (§4) Given two primary endpoints at two different time points (annualized relapse rate at one year, time to disability progression at two years), the Hochberg procedure for multiple comparisons (Hochberg, Biometrika 75:800-802 (1988)) was used to evaluate the primary endpoint. Each set of secondary endpoints was prioritized in order of importance as listed above. A closed testing procedure was used for each set, such that if statistical significance was not achieved for an endpoint within a set, all endpoints(s) of a lower rank in that set were not considered statistically significant.
# Both Phase 3 studies had similar designs. In the monotherapy study, 942 untreated relapsing remitting MS patients were randomized to receive natalizumab or placebo for 120 weeks (30 infusions) using a 2:1 allocation. In the add-on study, 1,171 patients who had been receiving weekly intramuscular injections of 30 μg AVONEX®, but who had relapsed despite this treatment, were randomized using a 1:1 allocation to add natalizumab or placebo to their regimen, also for 120 weeks.
# Efficacy parameters included EDSS scores, MS relapses, brain MRI scans, MSFC scores, visual function tests, and quality of life. EDSS and MSFC were measured every 12 weeks, brain MRI scans and quality of life questionnaires at baseline and every year, and MS relapses on an ongoing basis.
# The patient population in the two Phase 3 studies were relapsing MS patients according to the criteria of the International Panel on the Diagnosis of Multiple Sclerosis (McDonald et al., Ann. Neurol. 50:121-127 (2001)). It encompassed a broad range of ages and disease severity, and represented the current relapsing MS population with active disease, consistent with the approved indication. Patients with primary- or secondary-progressive MS were excluded. […]
# Crohn's Disease patients = experiment: Deaths in Crohn's Disease trials of natalizumab; type: in vivo, human; details: natalizumab-treated Crohn's Disease patients
# From the text: The exposure to natalizumab was approximately three-fold greater in these trials than exposure to placebo. The causes of death were acute myocardial infarction, acute renal failure, carbon dioxide asphyxiation, PML, pneumocystis carinii pneumonia, and bronchopulmonary aspergillosis.
# MS patients [8] = experiment: Safety of natalizumab in MS clinical trials (adverse events, deaths); type: in vivo, human
# From the text: Eighteen treatment-emergent deaths occurred in the entire natalizumab program. The adverse events encountered in the trials, both common and serious, were similar in natalizumab-treated patients and controls. Adverse events that led to discontinuation of natalizumab occurred in 5.8% of natalizumab-treated MS patients and in 4.8% of placebo-treated MS patients, with urticaria being the most common cause of discontinuation in the natalizumab-treated patients (1.2%).
# Of the eighteen deaths that occurred during the clinical trials, five occurred in the placebo-controlled MS trials (including two in patients who had received natalizumab and three who had received placebo). The patients who received natalizumab died of alcohol intoxication and metastatic malignant melanoma. The patients who received placebo died of cardiac arrest, respiratory arrest, and pleural carcinomatosis with seizures. Four deaths occurred in the open-label MS trials, due to respiratory distress, PML, suicide, and seizure due to MS.
# At least one serious adverse event was encountered by 251 of the 1,617 natalizumab-treated MS patients (15.5%) and by 214 of the 1,135 placebo-treated patients (18.9%) in the placebo-controlled trial. The most common serious adverse events, classified by organ systems, were nervous system disorders (5.9% natalizumab, 10.2% placebo). […] The second most common serious adverse events were infections and infestations (2.4% natalizumab, 2.2% placebo), with appendicitis and urinary tract infection (<1% in both groups) as the most common.
# [9] = system: relapsing MS patients relapsing despite AVONEX; experiment: Phase 3 add-on therapy study: natalizumab added to AVONEX versus AVONEX plus placebo for 120 weeks; type: in vivo, human
# Method: as §1, §2, §3, §4
# The add-on therapy study was designed to evaluate the efficacy of natalizumab against active control for patients breaking through AVONEX® monotherapy. The choice of β-interferon was supported by available data on the proposed mechanisms of action of the available drugs. As discussed above, natalizumab has a well-defined mechanism of action, specifically targeting cellular adhesion and trans-endothelial migration via α4-integrins, as do the class of alpha-4 inhibitor compounds. Although the exact mechanism by which interferon-β exerts efficacy in MS is not known, interferon-β induces a large number of cellular processes involved in cytokine secretion and cellular phenotype changes. […]
# [10] = Population pharmacokinetic analysis of natalizumab with concurrent AVONEX; type: in vivo, human
# Method: In a placebo-controlled MS study, the administration of AVONEX® appeared to be associated with an increase in the serum concentrations of natalizumab in a small cohort on whom intensive pharmacokinetic sampling was performed. However, based upon a comparison of the mean post-hoc parameter estimates from the population pharmacokinetic analysis, steady-state clearance and half-life values differed between patients concurrently taking AVONEX® and natalizumab monotherapy, but only by approximately 5%, and were not considered clinically significant. […] It is notable that the two reports of PML in the MS database occurred in patients receiving concomitant AVONEX®. Thus, the risk of PML with natalizumab treatment may be increased by concomitant treatment with interferon β, though this could have occurred in two patients on combination therapy due to chance alone (p=0.23).
# JCV [11] = experiment: Safety evaluation for PML / JCV in natalizumab-exposed clinical trial patients
# From the text: Clinical trial patients exposed to natalizumab were systematically assessed for evidence of incipient PML or any other opportunistic infection.
# Criteria were established prospectively for the neuroradiologic evidence and laboratory assays for the diagnosis of PML. A diagnosis of “confirmed PML” was defined by presence of progressive clinical disease, MRI signs typical of PML, detection of JCV DNA in CSF, or pathologic confirmation. Sufficient evidence to exclude PML was defined as lack of progressive neurological disease, MRI lesions not typical of PML or stable over time, or no detectable JCV DNA in the CSF if the MRI was suspicious. A case was deemed “indeterminate” if there was clinical or MRI suspicion of PML and follow-up clinical, MRI, or CSF data could not be obtained.
# Investigators were requested to perform the assessment procedure, including medical history, neurological examination, brain MRI, and CSF collection. Blood samples were also collected for PCR analysis of JCV DNA as an exploratory adjunct. MRI scans were assessed by Central Reader Centers with expertise in neurological disorders, including the two Central Reader Centers for the original Phase 3 MS studies. A consensus guideline was developed prospectively to standardize criteria to help distinguish MS white matter abnormalities from those of PML.
# [12] = mean post-hoc parameter estimates, population pharmacokinetic analysis
# Sequence of serotonin 5HT2(A) receptor (P28223 whole entry): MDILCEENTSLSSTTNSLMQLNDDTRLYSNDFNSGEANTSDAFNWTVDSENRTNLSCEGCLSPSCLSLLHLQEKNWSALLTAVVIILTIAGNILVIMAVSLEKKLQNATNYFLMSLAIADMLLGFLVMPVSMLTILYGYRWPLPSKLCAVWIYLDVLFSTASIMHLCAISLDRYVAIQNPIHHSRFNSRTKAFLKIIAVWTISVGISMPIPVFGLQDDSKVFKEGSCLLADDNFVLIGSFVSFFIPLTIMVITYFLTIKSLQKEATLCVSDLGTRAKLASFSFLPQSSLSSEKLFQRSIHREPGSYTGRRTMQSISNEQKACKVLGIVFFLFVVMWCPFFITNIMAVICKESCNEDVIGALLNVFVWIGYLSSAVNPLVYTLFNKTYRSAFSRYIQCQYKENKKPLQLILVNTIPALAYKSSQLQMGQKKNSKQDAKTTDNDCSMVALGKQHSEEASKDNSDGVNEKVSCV
compound,measurement,setting,value
"Nc1ccn(C[C@@H](CO)OCP(=O)(O)O)c(=O)n1 [Cidofovir, cidofovir]",Clinical effect in PML,JCV [1],without clinical effect
CN(C)CCCN1c2ccccc2Sc2ccc(Cl)cc21 [chlorpromazine],Block of JCV cell entry,JCV [2],block
O=C1Cc2cc(CCN3CCN(c4nsc5ccccc45)CC3)c(Cl)cc2N1 [zisprasidone],Potency as 5HT2(A) receptor antagonist relative to chlorpromazine and clozapine,[3],significantly more potent
glatiramer acetate,Subjects who experienced at least one relapse despite treatment,MS patients [4],66%
natalizumab: humanized antibody against VLA-4; humanized IgG4κ monoclonal antibody directed against the α-4-subunit of alpha-4 integrins,Interaction between glatiramer acetate and natalizumab pharmacokinetics,[5],no interactions
same,Interaction between glatiramer acetate and natalizumab α4-integrin receptor saturation,[5],no interactions
same,Deaths,[6],two
same,"Quality of life, physical and mental components of the SF-36",[7]; monotherapy versus placebo,improved
same,Annualized relapse rate,"[7]; monotherapy, two years",0.235
same,Hazard ratio (95% confidence interval) for sustained progression of disability,"[7]; natalizumab versus placebo, two years","0.58 (0.43, 0.77)"
same,Percentage of patients with sustained progression of disability,"[7]; two years, measured by EDSS, monotherapy",17%
same,Patients remaining relapse-free,"[7]; two years, monotherapy",67%
same,Risk reduction of disability progression,"[7]; versus placebo, EDSS, two years",42%
same,Relative reduction in annualized relapse rate,"[7]; versus placebo, two years",68%
same,Deaths,Crohn's Disease patients,Six
same,Tolerability,"MS patients [8]; 3,919 subjects in MS, Crohn's Disease and rheumatoid arthritis trials",generally well tolerated
same,Occurrence of malignancy,"MS patients [8]; during natalizumab treatment, balanced with control groups",uncommon
same,Incidence of hypersensitivity reactions,"MS patients [8]; human, in vivo",approximately 4%
same,Incidence of serious systemic hypersensitivity reactions,"MS patients [8]; human, in vivo",less than 1%
same,Adverse events that led to discontinuation,MS patients [8]; natalizumab-treated MS patients,5.8%
same,Discontinuation due to urticaria,"MS patients [8]; natalizumab-treated patients, most common cause of discontinuation",1.2%
same,Deaths,MS patients [8]; open-label MS trials,Four
same,Serious adverse events: MS relapse,MS patients [8]; placebo-controlled MS trial,4.7%
same,Serious adverse events: appendicitis and urinary tract infection,MS patients [8]; placebo-controlled MS trial,< 1%
same,Serious adverse events: infections and infestations,MS patients [8]; placebo-controlled MS trial,2.4%
same,Serious adverse events: nervous system disorders,MS patients [8]; placebo-controlled MS trial,5.9%
same,Patients with at least one serious adverse event,"MS patients [8]; placebo-controlled MS trial, 251 of 1,617 patients",15.5%
same,Deaths,"MS patients [8]; placebo-controlled MS trials, patients who had received natalizumab",two
same,Tolerability in combination with AVONEX,"[9]; 589 patients, up to 120 weeks",well tolerated
same,"Quality of life, physical components of the SF-36","[9]; compared to AVONEX therapy alone, trend on the mental component",improved
same,Patients relapse-free,"[9]; two years, add-on to AVONEX",54%
same,Risk reduction of disability progression,"[9]; versus AVONEX alone, EDSS, two years",24%
same,Relative reduction in annualized relapse rate,"[9]; versus AVONEX, two years",55%
same,"Difference in half-life, concurrent AVONEX versus natalizumab monotherapy",[10]; [12],approximately 5%
same,"Difference in steady-state clearance, concurrent AVONEX versus natalizumab monotherapy",[10]; [12],approximately 5%
same,Serum concentrations of natalizumab on administration of AVONEX,"[10]; small cohort with intensive pharmacokinetic sampling, placebo-controlled MS study",increase
same,Incidence of PML,"JCV [11]; human, in vivo","approximately 1 /1,000"
same,"Incidence of PML, 95% confidence interval","JCV [11]; human, in vivo","0.2-2.8 /1,000"
same,JCV in CSF,"JCV [11]; human, in vivo",not detected
same,Confirmed cases of PML,"JCV [11]; two MS patients, one Crohn's Disease patient, two fatal",Three
